Consider 23 sequences from the DeepSol protein solubility set.

The nature of the data set: soluble on expression in E. coli; label from the status in PepcDB or PDB records.
In the case of “MAKNSRSKTQFENMKYEIAKEVGVNLKQGYNGDLTAREAGKIGGNIVKKVFQSYTGNSYPSERLGDTSR”, the “soluble on expression in E. coli” value was “not soluble”.
The value for “MGSDKIHHHHHHMFRIQLRTMSSKTCKSDYPKEFVSFLNSSHSPYHTVHNIKKHLVSNGFKELSERDSWAGHVAQKGKYFVTRNGSSIIAFAVGGKWEPGNPIAITGAHTDSPALRIKPISKRVSEKYLQVGVETYGGAIWHSWFDKDLGVAGRVFVKDAKTGKSIARLVDLNRPLLKIPTLAIHLDRDVNQKFEFNRETQLLPIGGLQEDKTEAKTEKEINNGEFTSIKTIVQRHHAELLGLIAKELAIDTIEDIEDFELILYDHNASTLGGFNDEFVFSGRLDNLTSCFTSMHGLTLAADTEIDRESGIRLMACFDHEEIGSSSAQGADSNFLPNILERLSILKGDGSDQTKPLFHSAILETSAKSFFLSSDVAHAVHPNYANKYESQHKPLLGGGPVIKINANQRYMTNSPGLVLVKRLAEAAKVPLQLFVVANDSPCGSTIGPILASKTGIRTLDLGNPVLSMHSIRETGGSADLEFQIKLFKEFFERYTSIESEIVV” was “not soluble”; that for “GMKQPNYYQDVKQFHQTFHHPGADQPTAIPLDRGVKRATWTAEEAVVEFLHQSSQNETEFLAAIETFKAGLDQAVKKSLKETYPVTEVERLVGQGDALTDALYFIMGSFVEAGLEPGPLFEIVQQANMAKLGPDGQPIFRESDQKVMKPDGWLPPEPQLEAEVVRQMKEKA” was “soluble”; that for “MDELSDIGDWSLIQSFLAVAETGSLSAAARQLDRSQPTLGRHVQALEQALGLSLFDRHARGLKLSADGARILPLAQQAHRAMTAISVTAAGQSQSLAGTVRITASVFASHHILPPILADIRAAEPAIELELVPSDTTENLLFRAADIAVRMYRPRQVDIVARHIGDVPLCACAATSYLERKGRPTRAEDLLDFDLVGYDADPIIVKTMQALGWPVTRHSFAMRCDNQSAYWQLIRAGCGIGFGQRSIVAADPLVEVLPFELPVPPLEMWLAAPQAMRLTPRIRRVWDLLAAGLLAAPL” was “not soluble”.
The value for “MKLNKLFDSKTVVFKKSDKYGKSDCCKTKCVEGQIEFGVKIPTDFPAFNRALVTFLKTQKNQLNVDLDSFVELYKAENLCYKTALKVVVASITFCETTPFTMKTEPQKNVEVAVKCDSEHTSLIKEYEV” was “not soluble”.
As for “MNELVSAFHIERANGKVNGDVVAVEPAKTVNQDAADDEVEIKLNVDNYQMLRSDSQGSLNSHGRSNSRLGRLFRSKHEMKKRETRADENRGEIEIQIDFDDLVNQLKIALIRCRDLMTFDKKDQCNPYVSVKLVALDGNKEVFKKKTPTAKNTRHPHFDNHVEIDINPSDLLNHKVVINVKDDTNYGTFVAKPVLGCLEIRLDSLMNRQLSQRWIPLSVERK”, the entry is “not soluble”; as for “FLPMSREEMDQLGWDACDFILVCGDAYIDHPSFVSGIIGRVLEAQGFRVGIIAQPDWTNVESFRVLGKPTIAWGVTAGNMDSMINRYTADRKIRSDDAYSPNNEPNKRPDRAATVYCQRCREAFPDVPVLLGGIEGSLRRIAHYDYWSDKVRRSILMDSKADLLMYGNGERAIIDVMHRLAKGEKIHEITDVRGTAFIINKHNKASKAQFIEIASNDVDTVGRVDPIINPYVMTEDIDGCEVEKEKGNSLAQYQNFQKEIVSKPVVREGDQLDKDTQIIQLKPVPSKAIKHKLPPRELAVIRLPSFEEVADDHVLYAHANRILHLETNPGNARALVQRHGERDVWINPPPIPLTTEEMDYVFDLPYARLPHSAYGDARFPAFDMIKFS”, “not soluble”.
Turning to “MAHHHHHHMRLLTHNFLACLKCDTYPLLVTAAEMEEIPVEYDAEFTRRMLARVDYASLRTTFHALREAHESVRGPSHDEGADTAEGALASSELPETMEGADFSDHSAFLRTAHYAMNVVAVRNGTLECPACKTTFSINDFIPNFVPEAK”, the “soluble on expression in E. coli” value is “soluble”.
Turning to “MSISISYSTTYSGWTVADYLADWSAYFGDVNHRPGQVVDGSNTGGFNPGPFDGSQYALKSTASDAAFIAGGDLHYTLFSNPSHTLWGKLDSIALGDTLTGGASSGGYALDSQEVSFSNLGLDSPIAQGRDGTVHKVVYGLMSGDSSALQGQIDALLKAVDPSLSINSTFDQLAAAGVAHATPAA”, the “soluble on expression in E. coli” value is “soluble”.
Consider “MRGFLKFAILAAVLLALAYGDDEDEEASELERRRIRNCPEVTFKRMTGCVWEFGRFLKKVLFLDLEQRTLDRFRKSCLSMAECFDLIECKETGKFSRGKRIKDSCDVMNYLSKDFVPCLKRLERLDPAPTCFNKWKPFSDLNEVGPDTTPEEMEELCKNMLGKDNCMKDLVSRTCGGVMSQELVDRFEATSVFKQCDAD”, for which the “soluble on expression in E. coli” value is given as “not soluble”.
Consider “MENKEKIFNAQHPLSNVNARSITYRSGGKSPKSPRRVDEENKTDEELGDALGISHRCDECDEMMKFETWVERQDAILECGHGYCKKCIPNIKKDAHTLTKCPVVAVKCRIPNWYQTGQAAKPSHRKSEAARKEYSTKAKLWNFEYKGRPLVVSLRRDATYGDLETSLSMLLNIDLKTNMILIHLPHSYNGADVNYFMKADDSLTNGPYEKDTKLSHLRHPKIAALSLEVTEKKTPSSETPSKENPKSPGPLDSNK”, for which the “soluble on expression in E. coli” value is recorded as “not soluble”.
Take “MAFKGYPVIDKDGNIYAGNQDGQLYAYTSTGSLKWTFPLNGFSSSSPAIDHNGNIYIGSGSGELFSISKNGDMNWSFYTDGPVRTAPLIDAKGTVYFGSDDMKVYAADANGNELWSYQTDSNVVSSPQLAEDGTLEHHHHHH”: the “soluble on expression in E. coli” value was “not soluble”.
On to “MIRIDVVLPAYRPGQGWEREAISRLTALSDSIPDVTFRIFIVPDGSNEGHSDEVRSHWATSPWEVIYCDYAKNRGKGFAVRYGVGQTDAPFVLYTDYDLPFTLDSYKQVIEALLEGADVVISRREPESYGKKIRFKRKMLSDFSHFVNKFFFLPTTDTQGGLKGFSSTGRFIFLQTRIDSFLFDTEFICLAKRKKVCIAVVSGSIRPDISLSVMKAKTILREVYKIPKLIKARWFS”, for which the “soluble on expression in E. coli” value is reported as “not soluble”.
The value for “MGSDKIHHHHHHMILNSRTIDDAKFFDKPILLFFTDENCKDCDTIYSKLQDSTIFSKYIGKKVNALEYIHYTIRLTRGMIPTITILSPTLDLLAVIESKDLKFIENKLRELLDEYKRRIVKGIKLEGYTPDPIEPTPSIIYETINKVIGGYEADTRMIEVYLTYTNVYKEYLKAKDKIKCSDDVARYLLEGKGEIKIDEKSSANVSMLVNYGVTSVQKLLDFIDINSGEVYRSKKKETKGILLDEALAGNALVSEYERTINEEYLSLAIKVADYIKNNLQHERGFRDIKEIDNITKVPYLEPISNSEASIFFSRLWNITGDETYKNLALKGLGSALGGALNNPKVIARAAIAYLKLFDSIKANRYLNIIDARITVVKNNGCNDSMLYYSGQCYSKIDEIQPTAF” was “not soluble”.
As for “MPVLNLNDPQAVERYEEFMRQSPYGQVTQDLGWAKVKNNWEPVDVYLEDDQGAIIAAMSMLLGDTPTDKKFAYASKGPVMDVTDVDLLDRLVDEAVKALDGRAYVLRFDPEVAYSDEFNTTLQDHGYVTRNRNVADAGMHATIQPRLNMVLDLTKFPDAKTTLDLYPSKTKSKIKRPFRDGVEVHSGNSATELDEFFKTYTTMAERHGITHRPIEYFQRMQAAFDADTMRIFVAEREGKLLSTGIALKYGRKIWYMYAGSMDGNTYYAPYAVQSEMIQWALDTNTDLYDLGGIESESTDDSLYVFKHVFVKDAPREYIGEIDKVLDPEVYAELVKD”, the entry is “soluble”; as for “MGSDKIHHHHHHMLVYPSGIDLSTSTLRYLSDLLRARRRERGTRWRRLTTDRQALLALAHLRCGHTYAQLAAGFGIGLATVYRYIVEAVEVLAALAPTLQQAMTFAANKAFVILDGTLLHIDRIAADRPYYSGKHKRHGMNVQVIADAFGRLLWASPALPGAVHDIKAARIHGIIEALTQAGIRTWADKGYQGAQGTIRVPYRGRWSTLPAGKRAVNSSHAKIRAVGEQANATLKSWRLLRKLRCSTTRITDIVKAVLALHLATAA”, “not soluble”.
On to “MGKATYTVTVTNNSNGVSVDYETETPMTLLVPEVAAEVIKDLVNTVRSYDTENEHDVCGW”, for which the “soluble on expression in E. coli” value is “soluble”.
With “MSLIITGVDVHVVNLPLTSPFRSSFETKTGETRTVVRVTTDDGHVGWGETMWGSPVARLTEQLSSSLIGKSPFALEEFHATHTMVPFFYGYIGYAALAGLDVACWDLMGKITGRPLTDLIGGRVRDTVPITALITRADAPDAPPADLPVALAEHAAKVVAIGGFTAVKLKGTKDVDGDVKIMRALRAVLPDVELRVDPNAAWSVPESIRAGLRMEELDLEYLEDPCWGIDGMARVREKIRIPLCTNMCVVAFEDFAPAMRLGAVDVIHGDVYKWGGEGHHHHHH”, the “soluble on expression in E. coli” value is on record as “not soluble”.
On to “MGSDKIHHHHHHMRTDNKLSGIIAKKHSFSVPLDYQQSPSEQINLFVRELSSVEHQNKELPYLVFFQGGPGFGAVRPVANTGWIKRALTQYRVLLLDQRGTGLSTPVSAESLAHLTSQQQAEYLSHFRSDNIIRDAELIRAKLSPDRPWSILGQSFGGFCVLRYLSAAPQGLKAAYITGGIPSLERSADEVYQATYQRVLAKNQDFFSRFSDARELANRLASHISEYEVLLSSGERLTVEMLQLLGINLGMEQGPEGVYYLLEQALIDTAQGVKVNPLFLHQFGQFLDYNTNPLFAVLHESIYCQNSASNWAAHRVREQYSQFNYHLGKDLLFTGEMVYPWMFDQFSQLQPLKEAAELLAAKSDWPALYDLEQLKANTVPVSAAIYSEDMFVEMQYSLETTKDVGSLKYWLTSEYEHNGIRMDGERVLDKLIALNTGRELR”, for which the “soluble on expression in E. coli” value is on record as “not soluble”.
“MAHHHHHHMSVAPKRTAELLWLEQQRARQYEQHRKRVEQQKPCVDNKTPRNLSLSNKRALMEQERRKCIDEENRRLVVNMSAIMERGGGIDNKEPWRRTNGPRDAEIRRRREQQKLAEENLKLLHRLENVKPVYRLEKWEMERDENEILVDRISRYPYIPMNRRKGVGE”: the “soluble on expression in E. coli” value is “soluble”.
For the sequence “MSLGNKRVLITGATGFIGGYLVDEALRRQYEVWAAVRPHSDRSRLTDSRIRFVEIDYRDPSDIARLADKIAPEGESAWHLVIHNAGITKARDTSLFREINAEQTKRFLIGLQGAKHCPERFVLMSSMGSYGAPPDDCQPLSSSSVPKPTTAYGESKLLAEQYVQTFVTIPYTIIQPTGVYGPHDQDYLMAIRSVDKGFDFSTGNTPQTLTFIYAEDLASAVFIAAEHPDAAGQKYIVSDGKEYTDIEFGRMIQHLLDRKNVCHLRIPLPLVKATCYIGQKWADISGTLTPLNLDKYAIIAQRNWRCDSSPIRAIGFSPRYNLEQGLAETIRWARTTGQIREGHHHHHH”, the “soluble on expression in E. coli” value is listed as “soluble”.
The value for “MGSDKIHHHHHHMSLLSDEEVNSLSIQRMIFHVVDPALENPTFLAEVNPPQCVDFFVERVKETLKGSAYEFVPGAGIPNLLHRALPGPDGKDDFITVSHALAERFKDKVKQDKRLAPGVLMLFALKTNGNNQLVAVIKYEHQQVVSYSYVKDTNGSPVLDADGNPVPDLKTLVETFTKDRKAMQKSAVIRFQNINSSGGGTFSSSAVVIDHSSGRYRDATQHFANFLDIRRALKPSELTKRLEDAAVEAIKAHRSEVPTEIAKAPKRHVRTAMSRLDGFDFEKPEEFLGAVLQGVSPDSKILKTFKSKLASKNISTEAFKFEGATPPPAEYRRVVTNEGVTLLFSAGHEEKKNVEIQDEENGGVKITIRTTGLERNDELEKMPRLPD” was “not soluble”; that for “GMSYQNANYSAFYVSEPFSESNLGANSTHDFVYYNMLRMWKGEDNSFPFNDAHDKTYNVRDGSDWEKTLKPRLHTRLDNSKNIILFLSSITANSRALREEMNYGIGTKGLPVIVIYPDYDKKSDIVDSNGNFKKQIKDLWDKLPAFRDNMSSVATLHIPCTKSVIISALNNEDFMVNTMADAEKYYYKP” was “soluble”.
